Results reported in patent US5574136, “DNA encoding granulocyte colony-stimulating factor receptor and protein thereof” (Osaka Bioscience Institute, dated 1996).

Columns and labels:
[1] = molecular target: T1, mouse recombinant G-CSF (granulocyte colony-stimulating factor) (mouse, UniProt P09920, radioiodinated (125I, IODO-GEN method) where used as the labelled ligand; unlabelled where used as competitor); assay: saturation binding of murine 125I-G-CSF to COS cells transfected with pHQ3, Scatchard plot
[2] = molecular target: T1, mouse recombinant G-CSF (granulocyte …); assay: saturation binding of 125I-G-CSF to COS cells transfected with pJ17, Scatchard plot
Protocol: The binding of ^125I-G-CSF to COS or NFS-60 cells was examined. COS cells grown on 15 cm plates were transfected with 20 µg of the pI62 or pJ17 plasmid. Cells were split into 6-well microtiter plates at 12 hr after the glycerol shock, and grown for 60 hr in DMEM containing 10% FCS. Cells were washed with binding medium, and incubated at 4° C. for 4 hr with ^125I-G-CSF (10 pM to 1.2 nM range). To determine the non-specific binding of ^125I-G-CSF to cells, a large excess of unlabeled G-CSF (800 nM) was incubated in the assay mixture, and the radioactivity bound to the cells was subtracted from the total binding to yield the specific binding.
For binding of G-CSF to NFS-60 cells, 5.2 ×10^6 cells were incubated at 4° C. for 4 hr with various concentrations of ^125I-G-CSF in 0.3 ml of RPMI-1640 medium containing 10% FCS and 20 mM HEPES (pH 7.3). As mentioned above, 1 ×10^6 COS cells transfected with the plasmid pJ17 were incubated with various amounts of ^125I-G-CSF with or without an excess of unlabeled G-CSF. In the FIG. 3A, the specific binding (●) is shown as the difference between total (○) and non-specific binding (Δ). FIG. 3B is the scatchard plot of G-CSF binding data in COS cells, and FIG. 3C is the saturated binding of ^125I-G-CSF to NFS-60 cells, showing total (○), non-specific (Δ) and specific (●) binding to cells. […]

human recombinant M-CSF = molecular target: T2, human recombinant M-CSF (human, UniProt P09603); assay: competition for binding of 125I-mouse G-CSF to COS cells transfected with pJ17
T2 sequence: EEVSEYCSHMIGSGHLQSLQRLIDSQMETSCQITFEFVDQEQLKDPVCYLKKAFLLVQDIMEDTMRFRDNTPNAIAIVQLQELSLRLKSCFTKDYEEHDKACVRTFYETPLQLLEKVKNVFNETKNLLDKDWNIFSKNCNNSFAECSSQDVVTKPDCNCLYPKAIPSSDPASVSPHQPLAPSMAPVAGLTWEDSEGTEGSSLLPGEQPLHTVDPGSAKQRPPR

mouse recombinant IL-6 = molecular target: T3, mouse recombinant IL-6 (mouse, UniProt P08505); assay: as above
T3 sequence: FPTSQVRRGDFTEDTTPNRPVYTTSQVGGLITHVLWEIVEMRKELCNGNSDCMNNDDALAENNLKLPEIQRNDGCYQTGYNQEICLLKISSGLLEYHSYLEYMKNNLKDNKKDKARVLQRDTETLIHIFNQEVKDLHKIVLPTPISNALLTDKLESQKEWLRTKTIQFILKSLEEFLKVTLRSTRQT

rat prolactin = molecular target: T4, rat prolactin (rat, UniProt P01237); assay: as above
T4 sequence: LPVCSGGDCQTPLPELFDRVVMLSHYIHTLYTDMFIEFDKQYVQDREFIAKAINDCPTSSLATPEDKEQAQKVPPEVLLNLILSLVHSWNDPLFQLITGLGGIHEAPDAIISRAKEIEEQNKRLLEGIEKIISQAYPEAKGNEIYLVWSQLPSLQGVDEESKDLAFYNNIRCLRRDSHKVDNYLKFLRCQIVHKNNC

[3] = molecular target: mouse recombinant LIF (leukemia inhibitory factor) (mouse, UniProt P09056); assay: as above
mouse recombinant IL-3 = mouse recombinant IL-3 (mouse, UniProt P01586); assay: as above
mouse recombinant GM-CSF = mouse recombinant GM-CSF (mouse, UniProt P01587); assay: as above
[4] = molecular target: T1, mouse recombinant G-CSF (granulocyte …); assay: saturation binding of 125I-G-CSF to NFS-60 cells, Scatchard plot
Protocol: For binding of G-CSF to NFS-60 cells, 5.2 ×10^6 cells were incubated at 4° C. for 4 hr with various concentrations of ^125I-G-CSF in 0.3 ml of RPMI-1640 medium containing 10% FCS and 20 mM HEPES (pH 7.3). As mentioned above, 1 ×10^6 COS cells transfected with the plasmid pJ17 were incubated with various amounts of ^125I-G-CSF with or without an excess of unlabeled G-CSF. In the FIG. 3A, the specific binding (●) is shown as the difference between total (○) and non-specific binding (Δ). FIG. 3B is the scatchard plot of G-CSF binding data in COS cells, and FIG. 3C is the saturated binding of ^125I-G-CSF to NFS-60 cells, showing total (○), non-specific (Δ) and specific (●) binding to cells. The specific binding is the difference between the total and non-specific binding. FIG. 3D is the scatchard plot of G-CSF binding data on NFS-60 cells. […] If the transfection efficiency of COS cells was assumed to be 10 to 20% (Sympayrac and Danna, Proc. Natl. Acad. Sci. USA, 78, 7575–7578 (1981)), the positively transfected COS cells probably expressed the recombinant G-CSF receptor at 1.5-3.0 ×10^5 molecules per cell.

B1: human G-CSF receptor, class 1 (plasmid pHQ3), expressed on COS cells (receptor)
chain: EECGHISVSAPIVHLGDPITASCIIKQNCSHLDPEPQILWRLGAELQPGGRQQRLSDGTQESIITLPHLNHTQAFLSCCLNWGNSLQILDQVELRAGYPPAIPHNLSCLMNLTTSSLICQWEPGPETHLPTSFTLKSFKSRGNCQTQGDSILDCVPKDGQSHCCIPRKHLLLYQNMGIWVQAENALGTSMSPQLCLDPMDVVKLEPPMLRTMDPSPEAAPPQAGCLQLCWEPWQPGLHINQKCELRHKPQRGEASWALVGPLPLEALQYELCGLLPATAYTLQIRCIRWPLPGHWSDWSPSLELRTTERAPTVRLDTWWRQRQLDPRTVQLFWKPVPLEEDSGRIQGYVVSWRPSGQAGAILPLCNTTELSCTFHLPSEAQEVALVAYNSAGTSRPTPVVFSESRGPALTRLHAMARDPHSLWVGWEPPNPWPQGYVIEWGLGPPSASNSNKTWRMEQNGRATGFLLKENIRPFQLYEIIVTPLYQDTMGPSQHVYAYSQEMAPSHAPELHLKHIGKTWAQLEWVPEPPELGKSPLTHYTIFWTNAQNQSFSAILNASSRGFVLHGLEPASLYHIHLMAASQAGATNSTVLTLMTLTPEGSELHIILGLFGLLLLLTCLCGTAWLCCSPNRKNPLWPSVPDPAHSSLGSWVPTIMEEDAFQLPGLGTPPITKLTVLEEDEKKPVPWESHNSSETCGLPTLVQTYVLQGDPRAVSTQPQSQSGTSDQVLYGQLLGSPTSPGPGHYLRCDSTQPLLAGLTPSPKSYENLWFQASPLGTLVTPAPSQEDDCVFGPLLNFPLLQGIRVHGMEALGSF
With B1 the Kd [1] was 0.55 nM.

B2: recombinant murine G-CSF receptor expressed on COS cells (plasmids pI62, pJ17) (receptor)
chain: CGHIEISPPVVRLGDPVLASCTISPNCSKLDQQAKILWRLQDEPIQPGDRQHHLPDGTQESLITLPHLNYTQAFLFCLVPWEDSVQLLDQAELHAGYPPASPSNLSCLMHLTTNSLVCQWEPGPETHLPTSFILKSFRSRADCQYQGDTIPDCVAKKRQNNCSIPRKNLLLYQYMAIWVQAENMLGSSESPKLCLDPMDVVKLEPPMLQALDIGPDVVSHQPGCLWLSWKPWKPSEYMEQECELRYQPQLKGANWTLVFHLPSSKDQFELCGLHQAPVYTLQMRCIRSSLPGFWSPWSPGLQLRPTMKAPTIRLDTWCQKKQLDPGTVSVQLFWKPTPLQEDSGQIQGYLLSWNSPDHQGQDIHLCNTTQLSCIFLLPSEAQNVTLVAYNKAGTSSPTTVVFLENEGPAVTGLHAMAQDLNTIWVDWEAPSLLPQGYLIEWEMSSPSYNNSYKSWMIEPNGNITGILLKDNINPFQLYRITVAPLYPGIVGPPVNVYTFAGERAPPHAPALHLKHVGTTWAQLEWVPEAPRLGMIPLTHYTIFWADAGDHSFSVTLNISLHDFVLKHLEPASLYHVYLMATSRAGSTNSTGLTLRTLDPSDLNIFLGILCLVLLSTTCVVTWLCCKRRGKTSFWSDVPDPAHSSLSSWLPTIMTEETFQLPSFWDSSVPSITKITELEEDKKPTHWDSESSGNGSLPALVQAYVLQGDPREISNQSQPPSRTGDQVLYGQVLESPTSPGVMQYIRSDSTQPLLGGPTPSPKSYENIWFHSRPQETFVPQPPNQEDDCVFGPPFDFPLFQGLQVHGVEEQGGF
For B2, the Kd [2] was 0.29 nM, the binding result (human recombinant M-CSF) was “no binding” and the binding result (mouse recombinant IL-6) was “no binding”. B2: no binding (rat prolactin); no binding [3]; no binding (mouse recombinant IL-3). B2: no binding (mouse recombinant GM-CSF).

B3: native murine G-CSF receptor on NFS-60 cells (receptor)
chain: B2 chain
In the case of B3, the Kd [4] is reported as 0.18 nM.
